Positions count from the first letter of the chain named. Ends that are not written are not given here. * marks the point of attachment. GlcNAc2 = N-linked chitobiose, CC(=O)N[C@@H]1[C@@H](O)[C@H](O[C@@H]2O[C@H](CO)[C@@H](O)[C@H](O)[C@H]2NC(C)=O)[C@@H](CO)O[C@H]1*

The target of assay [1] is MUC16 18mer. The assay can be described thus: ELISA 12/24/13 (sups from time of freezing), neat, column 18. In general terms: In an ELISA, binding on a coated surface is turned into a signal by an enzyme label.
For assay [2], the target named is MUC16^c114 (human). Description: FACS, SKOV3-c114.
Assay [3] addresses non-glycosylated 15-mer MUC16 peptide (human). The assay can be described thus: ELISA 12/24/13 (sups from time of freezing), neat, column 15.
The target in assay [4] is MUC16^c114 on SKOV3 cells with MGAT5 knock-down (human). Description: FACS, SKOV3-shMGAT5-c114. (In flow cytometry, cells or beads pass a laser one at a time.)
Assay [5] has as its target (GlcNAc2)2-18-mer glycopeptide, unconjugated (human). The assay can be described thus: sandwich ELISA on 'MUC16 18mer + GlcNAc2'; Blank 0.029.
The target in assay [6] is GlcNAc2-15-mer glycopeptide, unconjugated (human). Description: sandwich ELISA on 'MUC16 15mer + GlcNAc2'; Blank 0.019.
Assay [7] deals with MUC16^c114 (human). The assay can be described thus: FACS of transfected cells; vector control phrGFP 11.4; cell line not given.
Assay [8] has as its target MUC16^c114 (human). Description: FACS of transfected cells; vector control phrGFP 3.7; cell line not given.
Assay [9] addresses MUC16^c114 (human). The assay can be described thus: FACS, SKOV3 transfectant, goat anti-mouse IgG-PE.
For assay [10], the target named is MUC16 18mer. Description: sandwich ELISA on 'MUC16 18mer'; Blank 0.032.
The target in assay [11] is non-glycosylated 15-mer MUC16 peptide (human). Description: sandwich ELISA on 'MUC16 15mer'; Blank 0.021.
Assay [12] deals with (GlcNAc2)2-18-mer glycopeptide, unconjugated (human). The assay can be described thus: ELISA 12/24/13 (sups from time of freezing), neat, column 18S.
The target in assay [13] is MUC16 unrelated peptide 18mer+GlcNAc2. The assay can be described thus: sandwich ELISA on 'MUC16 unrelated 18mer + GlcNAc2'; Blank 0.014.
Assay [14] has as its target GlcNAc2-15-mer glycopeptide, unconjugated (human). Description: ELISA 12/24/13 (sups from time of freezing), neat, column 15S.
For assay [15], the target named is MUC16 unrelated peptide 18mer. The assay can be described thus: sandwich ELISA on 'MUC16 unrelated peptide 18mer'; Blank 0.013.
Assay [16] has as its target MUC16^c114 (human). Description: FACS of transfected cells; vector control phrGFP 7.9; cell line not given.
A further assay addresses T1, MUC16^c114-N2 (human, chain 1 pos 1 and pos 30: N-glycosylated Asn (cell-made glycans), written N).
T1 construct: MUC16^c114 with Asn24 (Asn1800) changed to Ala, on SKOV3 cells; also called N24 mut c114; SKOV3-N24 mutc114; not shown: hrGFP of the phrGFP II-C vector, fused at the cytoplasmic carboxy-terminus
T1 chain: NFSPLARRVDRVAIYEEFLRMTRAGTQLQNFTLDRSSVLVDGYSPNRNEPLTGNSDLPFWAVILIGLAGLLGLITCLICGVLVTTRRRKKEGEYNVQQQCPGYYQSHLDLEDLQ
Description: FACS, SKOV3-N24 mutc114.

In a further assay the target is T2, MUC16^c114-N3 (human, chain 1 pos 1 and pos 24: N-glycosylated Asn (cell-made glycans), written N).
T2 construct: MUC16^c114 with Asn30 (Asn1806) changed to Ala, on SKOV3 cells; also called N30 mut c114; SKOV3-N30 mutc114; not shown: hrGFP of the phrGFP II-C vector, fused at the cytoplasmic carboxy-terminus
T2 chain: T1 chain with A24N, N30A
Description: FACS, SKOV3 transfectant, goat anti-mouse IgG-PE.

In a further assay the target is T3, MUC16^c114-N1 (human, chain 1 pos 24 and pos 30: N-glycosylated Asn (cell-made glycans), written N).
T3 construct: MUC16^c114 with Asn1 (Asn1777) changed to Ala, on SKOV3 cells; also called N1 mut c114; SKOV3 MUC16^c114-N1; not shown: hrGFP of the phrGFP II-C vector, fused at the cytoplasmic carboxy-terminus
T3 chain: T1 chain with N1A, A24N
Description: FACS, SKOV3 transfectant, goat anti-mouse IgG-PE.

A further assay addresses T4, MUC16^c114-N123 (human, All three N-glycosylation sites (pos 1, 24, 30) are mutated to Ala; none is left in the ectodomain.).
T4 construct: MUC16^c114 with Asn1, Asn24 and Asn30 changed to Ala, on SKOV3 or 3T3 cells; also called N1-N24-N30 mut c114; SKOV3-N1-N24-N30mutc114; not shown: hrGFP of the phrGFP II-C vector, fused at the cytoplasmic carboxy-terminus
T4 chain: T1 chain with N1A, N30A
The assay can be described thus: FACS, SKOV3 transfectant, goat anti-mouse IgG-PE.

In another assay the target is T5, MUC16^c344 (human, N- and O-glycosylation sites ; chain 1 pos 231, 254 and 260 (N1, N24, N30 of c114): N-glycosylated Asn, written N; further N- and O-glycosylation sites in the tandem-repeat part).
T5 construct: also called MUC16^c344-GFP; SKOV3-c344; not shown: hrGFP of the phrGFP II-C vector, fused at the cytoplasmic carboxy-terminus
T5 chain: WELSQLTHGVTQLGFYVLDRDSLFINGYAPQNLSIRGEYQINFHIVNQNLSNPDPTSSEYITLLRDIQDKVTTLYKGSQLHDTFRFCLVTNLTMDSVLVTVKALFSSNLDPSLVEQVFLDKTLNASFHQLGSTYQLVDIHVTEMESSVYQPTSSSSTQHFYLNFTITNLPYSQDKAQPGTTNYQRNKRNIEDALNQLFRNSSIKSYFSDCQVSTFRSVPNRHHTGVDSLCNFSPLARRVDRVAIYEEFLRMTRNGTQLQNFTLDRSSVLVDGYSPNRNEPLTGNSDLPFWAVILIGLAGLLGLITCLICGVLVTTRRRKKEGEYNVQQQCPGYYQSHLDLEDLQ
Description: FACS of transfected cells; vector control phrGFP 11.4; cell line not given.

A further assay has as its target T6, MUC16^c86.
T6 construct: also called Internal Deletion
T6 single chain: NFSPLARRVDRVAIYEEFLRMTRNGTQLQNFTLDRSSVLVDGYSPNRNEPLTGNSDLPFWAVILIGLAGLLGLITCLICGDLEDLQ
Described as above.

The next assay deals with T7, MUC16^c80.
T7 construct: also called External Deletion
T7 single chain: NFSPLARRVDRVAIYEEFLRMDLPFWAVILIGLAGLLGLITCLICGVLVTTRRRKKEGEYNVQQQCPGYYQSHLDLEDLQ
The assay is described as above.

Assay [17] has as its target T8, MUC16 nonglycosylated peptide 2 (human).
T8 construct: Peptide used to elicit the 4H11 antibody; also called nonglycosylated MUC16 peptide 2
T8 peptide: CTLDRSSVLVDGYSPNRNE
The assay can be described thus: sandwich ELISA on 'MUC16 Nonglycosylated Peptide2'; Blank 0.029.

In assay [18] the target is T9, biotinylated chitobiose-conjugated 18-mer glycopeptide (human, also: biotinylated, site not given here).
T9 construct: Cys plus T22-V38 of MUC16^c114; The range is derived from T22-V38 and the statement that c114 is 1777-1890; also called (GlcNAc2)2-18-mer, biotinylated; 18-mer(chitobiose)2[C-T22-V38]
T9 peptide: Ac-CTRN(GlcNAc2)GTQLQN(GlcNAc2)FTLDRSSV-NH2
Description: BLI (Octet QK), biotinylated glycopeptide on streptavidin sensor, antibody 10 ug/mL, 1:1 model. On the procedure: Binding affinity was determined using ForeBio Octet QK. 5 μg/mL of biotinylated chitobiose-conjugated 18-mer glycopeptide was loaded onto a streptavidin biosensor. After washing off excess antigen, mouse antibodies were tested at 10 μg/mL for association and dissociation steps, respectively. Binding parameters were calculated using 1:1 binding site model, partial fit.
(BLI is a label-free optical method that tracks binding on a fibre tip over time.)

For assay [19], the target named is T10, (GlcNAc2)2-18-mer glycopeptide, unconjugated (human).
T10 construct: Used in ELISA without KLH; also called 18-mer(chitobiose)2[C-T22-V38]; 18mer-chitobiose peptide
T10 peptide: Ac-CTRN(GlcNAc2)GTQLQN(GlcNAc2)FTLDRSSV-NH2
The assay can be described thus: ELISA during fusion screen, dilution 400, column 18S.

Assay [20] concerns the target T11, MUC16 18mer (not fully specified).
T11 construct: also called non-glycosylated 18-mer MUC16 peptide
T11 peptide: CTRNGTQLQNFTLDRSSV
Description: ELISA during fusion screen, dilution 400, column 18.

Assay [21] deals with T10, (GlcNAc2)2-18-mer glycopeptide, …. Description: ELISA 12/24/13 (sups from time of freezing), dilution 400, column 18S.
Assay [22] concerns the target T12, GlcNAc2-15-mer glycopeptide, unconjugated (human).
T12 construct: Cys plus G25-V38 of MUC16^c114; Used in ELISA without KLH; also called 15-mer(chitobiose)[C-G25-V38]; 15mer-chitobiose peptide
T12 peptide: Ac-CGTQLQN(GlcNAc2)FTLDRSSV-NH2
Description: ELISA 12/24/13 (sups from time of freezing), dilution 400, column 15S.

Assay [23] has as its target T11, MUC16 18mer. Description: ELISA 12/24/13 (sups from time of freezing), dilution 400, column 18.
Assay [24] concerns the target T13, non-glycosylated 15-mer MUC16 peptide (human).
T13 construct: Same peptide as the GlcNAc2-15-mer without the glycan; also called unglycosylated 15-mer
T13 peptide: CGTQLQNFTLDRSSV
The assay can be described thus: ELISA 12/24/13 (sups from time of freezing), dilution 400, column 15.

Assay [25] deals with EGFR (endogenous, MUC16^c114-expressing 3T3 cells) (Mus musculus (Mouse), UniProt Q01279 25-1210). The assay can be described thus: co-precipitation from MUC16^c114-expressing 3T3 cells with MUC16-targeting antibodies, western blot.
Assay [26] has as its target HER3 (endogenous, MUC16^c114-expressing 3T3 cells) (Mus musculus (Mouse), UniProt Q61526 20-1339). The assay is described as above.

HER3 (endogenous, MUC16^c114-expressing 3T3 cells), sequence (Q61526 20-1339 limits assumed): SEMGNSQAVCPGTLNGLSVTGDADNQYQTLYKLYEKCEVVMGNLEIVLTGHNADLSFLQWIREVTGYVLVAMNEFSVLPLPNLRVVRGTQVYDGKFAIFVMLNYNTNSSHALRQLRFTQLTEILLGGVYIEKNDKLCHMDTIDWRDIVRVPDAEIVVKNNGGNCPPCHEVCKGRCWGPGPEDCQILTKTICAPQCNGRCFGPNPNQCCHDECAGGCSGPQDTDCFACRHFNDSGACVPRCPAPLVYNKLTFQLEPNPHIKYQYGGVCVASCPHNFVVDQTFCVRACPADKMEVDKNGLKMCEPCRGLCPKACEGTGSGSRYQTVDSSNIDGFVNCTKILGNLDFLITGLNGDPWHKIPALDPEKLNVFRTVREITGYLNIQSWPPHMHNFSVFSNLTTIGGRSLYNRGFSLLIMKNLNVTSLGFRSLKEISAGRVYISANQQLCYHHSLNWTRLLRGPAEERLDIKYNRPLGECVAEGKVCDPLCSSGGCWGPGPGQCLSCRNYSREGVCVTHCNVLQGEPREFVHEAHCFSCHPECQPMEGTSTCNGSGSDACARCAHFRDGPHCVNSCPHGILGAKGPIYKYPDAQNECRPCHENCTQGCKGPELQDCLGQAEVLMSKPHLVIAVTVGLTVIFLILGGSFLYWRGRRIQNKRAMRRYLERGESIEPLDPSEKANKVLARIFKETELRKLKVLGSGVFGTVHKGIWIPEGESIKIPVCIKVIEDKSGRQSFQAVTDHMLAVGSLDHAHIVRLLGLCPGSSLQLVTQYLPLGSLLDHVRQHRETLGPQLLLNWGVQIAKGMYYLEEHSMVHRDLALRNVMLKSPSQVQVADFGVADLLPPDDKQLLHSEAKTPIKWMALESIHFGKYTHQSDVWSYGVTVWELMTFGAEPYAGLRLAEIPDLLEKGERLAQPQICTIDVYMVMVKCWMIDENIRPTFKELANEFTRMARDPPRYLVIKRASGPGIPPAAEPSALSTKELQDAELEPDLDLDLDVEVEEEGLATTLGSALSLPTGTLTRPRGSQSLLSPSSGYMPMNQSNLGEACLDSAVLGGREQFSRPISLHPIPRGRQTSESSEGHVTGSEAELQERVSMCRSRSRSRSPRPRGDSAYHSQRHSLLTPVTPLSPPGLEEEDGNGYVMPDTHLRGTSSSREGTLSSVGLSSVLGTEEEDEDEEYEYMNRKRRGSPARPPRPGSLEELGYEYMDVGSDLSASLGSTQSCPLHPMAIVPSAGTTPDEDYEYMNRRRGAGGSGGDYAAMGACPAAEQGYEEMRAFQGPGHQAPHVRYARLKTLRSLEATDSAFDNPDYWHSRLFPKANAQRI

Turning to 4H11 (antibody), the ELISA signal in the assay with MUC16 18mer [1] stood at 0.02; in assay [3], 0.02; in assay [5] it was 0.063; in assay [6] it was 0.06; with MUC16 18mer [10], 0.076; in [11] it was 0.049. The ELISA signal is 0.02 in [12], 0.038 in assay [13], 0.02 in assay [14] and 0.045 in [15]. Also, the geometric mean phycoerythrin (PE) fluorescence worked out at 1120 with MUC16^c114 (human) [2] and 2380 in assay [4]. The results for the % 4H11-PE Positives with MUC16^c114 (human) [7], with MUC16^c114 (human) [8] and with MUC16^c114 (human) [16] were 51.7%, 19.3% and 28.4%, respectively. Besides, the Mean % PE with MUC16^c114 (human) [9] worked out at 85.7%.

B1: 4H11 (antibody, V domains shown)
VH: EVKLQESGGGFVKPGGSLKVSCAASGFTFSSYAMSWVRLSPEMRLEWVATISSAGGYIFYSDSVQGRFTISRDNAKNTLHLQMGSLRSGDTAMYYCARQGFGNYGDYYAMDYWGQGTTVTVSS
VL: DIELTQSPSSLAVSAGEKVTMSCKSSQSLLNSRTRKNQLAWYQQKPGQSPELLIYWASTRQSGVPDRFTGSGSGTDFTLTISSVQAEDLAVYYCQQSYNLLTFGPGTKLEVK
Consider B1, for which the “geometric mean phycoerythrin (PE) fluorescence” value in the assay with MUC16^c114-N2 was found to be 2650. For the same molecule, the “Mean % PE” value was determined as 15.6% with MUC16^c114-N3, 91.5% in the assay with MUC16^c114-N1 and 32.3% in the assay with MUC16^c114-N123. Moreover, the “% 4H11-PE Positives” value was 34.4% with MUC16^c344, 27.4% in the assay with MUC16^c86 and 16.7% with MUC16^c80. Besides, the ELISA signal in assay [17] turned out to be 2.14.

B2: 16C5.C1 (antibody, V domains shown)
VH: QVTLKESGPGILQPSQTLSLTCSFSGFSLNTLGMGVGWIRQPSGKGLEWLAHIWWDDDKYYYPALKSRLTISRDTSKNQVFLKIANVDTADTATYYCARIGTAQATDALDYWGQGTSVTVSS
VL: ELDMTQTPPSLSASVGETVRIRCLASEDIYSGISWYQQKPGKPPTLLIYGASNLESGVPPRFSGSGSGTDYTLTIGGVQAEDAATYYCLGGYSYSSTLTFGAGTNVEIK
notes: Mouse monoclonal from a hybridoma
As a reminder, the Kd is the equilibrium constant for the complex coming apart. What is called koff is a measure of how fast the partners let go of each other. Read a high koff as fast dissociation. B2 displayed a Kd in assay [18] of 25.7 nM. In assay [18], this molecule registered a koff of 0.00172 s⁻¹. For the same molecule, the ELISA signal in [19] was determined as 0.36; in the assay with MUC16 18mer [20] it was 0.24; in assay [21], 0.68; in [22], 0.23; in the assay with MUC16 18mer [23], 0.63; in [24], 0.62.

B3: MUC16^c114 (other)
chain: T1 chain with A24N
modifications: capable of N-glycosylation at Asn1, Asn24 and Asn30 ; chain 1 pos 1, 24, 30: Asn capable of N-glycosylation on the transfected cells, written N
notes: The forward primer adds Met-Val before Asn1; also called MUC16^c114-GFP; SKOV3 MUC16^c114; not shown: hrGFP of the phrGFP II-C vector fused at the cytoplasmic carboxy-terminus, with its short cloning linker
In the case of B3, the binding result in [25] and in [26] was “no binding” in each case.

(Values after patent publication US20180112008A1 (Memorial Sloan Kettering, published 2018).)
